Target: HER-2 (human (endogenous in SKBR3 and T47D)) (UniProt P04626)

Row | Substance | IC50 of killing of HER-2-overexpressing SKBR3 cells (luminescent cell viability assay; Fig 4A) [µg/mL]
1 | eSrtA-conjugated cFRP5-maytansine (antibody) | 0.0779
2 | eSrtA-conjugated cFRP5-DM1 (antibody) | 0.067
